Article PMC11758712

What was measured:
[1] = biological target: HEK-derived SARS-CoV-2 Wuhan-Hu-1 spike receptor-binding domain (RBDHEK) (SARS-CoV-2 (Wuhan-Hu-1)) (UniProt P0DTC2); assay: mass photometry
[2] = biological target: monomeric ACE2 (a.a 19-611), C-terminally His-tagged (human) (UniProt Q9BYF1); assay: mass photometry
Sequence of monomeric ACE2 (a.a 19-611), C-terminally His-tagged (human) (Q9BYF1 19-611): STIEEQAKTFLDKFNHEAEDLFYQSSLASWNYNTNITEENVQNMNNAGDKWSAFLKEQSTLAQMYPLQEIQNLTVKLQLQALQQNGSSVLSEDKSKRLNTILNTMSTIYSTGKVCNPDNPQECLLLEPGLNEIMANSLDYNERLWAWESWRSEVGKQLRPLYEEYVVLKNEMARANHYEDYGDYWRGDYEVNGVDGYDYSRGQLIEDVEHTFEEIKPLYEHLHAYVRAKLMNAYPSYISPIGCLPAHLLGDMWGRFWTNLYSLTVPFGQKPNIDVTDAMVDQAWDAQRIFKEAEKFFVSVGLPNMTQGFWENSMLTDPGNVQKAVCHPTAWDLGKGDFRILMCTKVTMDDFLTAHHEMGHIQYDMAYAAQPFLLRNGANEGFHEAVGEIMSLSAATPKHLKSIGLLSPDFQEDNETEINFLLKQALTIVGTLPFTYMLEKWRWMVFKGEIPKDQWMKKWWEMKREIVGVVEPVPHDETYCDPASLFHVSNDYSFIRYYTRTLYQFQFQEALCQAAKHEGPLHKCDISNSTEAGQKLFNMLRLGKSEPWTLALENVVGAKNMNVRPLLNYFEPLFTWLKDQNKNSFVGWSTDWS

Substance “HEK-derived SARS-CoV-2 Wuhan-Hu-1 spike receptor-binding domain (RBDHEK) (from UniProt P0DTC2 319-541) (domain or fragment)” has a percent dimeric species [1] of 19.6%, a stoichiometry N [1] of 2 and a binding occupancy [2] of 33%.
